Experimental data taken from PMC3281904, “Novel Covalently Linked Insulin Dimer Engineered to Investigate the Function of Insulin Dimerization” (PLoS ONE, 2012).
Marks after values point to notes of the source that are not given here.

Experiments:
[1] = biological target: B25C insulin precursor (human) (UniProt P01308); assay: LC/MS; LC/MS of the fermentations; mass of a disulfide-linked dimer
[2] = hexameric insulin, previously determined, ref 65 (HI), 66 (bovine), 67 (porcine), cited from earlier work
From the text: Table 2 The experimental parameters determined from the fit in Figure 2 and results previously determined for hexameric insulin of human and porcine origin. | column: Standard Sedimentation Coefficient s20,w, [S]; Standard Diffusion Coefficient D20,w, (×10−7 [cm^2/s]); Molar mass [kg/mole]; Rh [nm]

Row | stoichiometry N [1] | Substance | Standard Sedimentation Coefficient s20,w ([2]; HI probably affected by non-ideality) | Molar mass [2] | Rh [2] | Standard Diffusion Coefficient D20,w [2]
1 | 2 | B25C insulin precursor (from UniProt P01308 1-29) | – | – | – | –
2 | – | Bovine insulin: hexameric bovine insulin, literature values | 3.12 S | 34.4 kg/mol | 2.63 nm | 8.35 ^* ×10−7 cm^2/s
